Substrate in this data set: O=C(O)/C=C/c1ccc(O)c(O)c1
Description: radiometric methyltransferase assay, scintillation counting, nonlinear Michaelis-Menten fit. Format: biochemical, Brachypodium distachyon. The note with it: co-substrate S-[methyl-14C]-adenosyl-L-methionine plus unlabeled SAM, 0.1 M Tris-HCl pH 7.5, 30°C, 20 min, methods heading b55 names BdCOMT1.

B1: BdCOMT4 (Brachypodium distachyon) (protein)
chain: MGSTAADMAATADEEACMFALQLASSSILPMTLKNAIELGLLDTLVQASGKSLTPAEVAAKLPSSSNPAAPDMVDRMLRLLASYGVVSCAVEEGENGKLSRRYAAAPVCKWLTPNEDGVSMAALALMNQDKVLMESWYYLKDAVLDGGIPFNKAYGMSAFEYHGTDPRFNRVFNEGMKNHSIIITKKLLDLYPGFEGLGTLVDVGGGVGATVGAIVARHPAIKGINFDLPHVISEGIPFPGVTHVGGDMFQKVPSGDAILMKWILHDWSDAHCATLLKNCYDALPAHGKVVIVECILPVNPEATPKAQGVFHVDMIMLAHNPGGKERYEREFEELARGAGFTGVKATYIYANAWAIEFTK
notes: full-length cDNA (from Bd21-3 plants) in pQE-T7-1, NdeI/XhoI, His-tagged; primer adds Met-Lys-Gln before native Met; expressed in E. coli, Ni-NTA purified
Regarding B1, the Km was 187 µM.

(Values after PMC3562662.)
